Experimental data taken from the supplement of paper PMC9732359.
± gives the uncertainty stated by the source.

Assay: protein stability index of a GFP-peptide fusion (yeast GPS) (PSI 1-4); higher = more stable; sorted into four equal gates, so the index is relative within each strain
Conditions: ubr1∆
Method in brief: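 Yeast carrying a pooled library were grown to mid-log phase in leucine-free medium. Each library plasmid expresses Cherry and has a tiled 17-residue yeast protein peptide fused downstream of GFP. Cells were sorted into four equal gates by GFP/Cherry ratio, and plasmids from each gate were PCR-amplified, Illumina-sequenced and assigned to strains by barcode. Summing, across gates, the read frequency times the gate number gave each peptide's protein stability index.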

Row | Sequence | protein stability index
1 | NPSNTPDKDYLLSIPIS [FAS1] | 2.82 ± 0.066
2 | NQEDEKNLQRESCEDIL [RTT102] | 3.17 ± 0.2
3 | NQEDLFELVHHFFQIDG [YML103C/NUP188] | 2.68 ± 0.051
4 | NQLDGFDDRGDVKVIMA [RPT2] | 3.52 ± 0.17
5 | NQNSDMKKKLELISYRN [SRB8] | 3.08 ± 0.04
6 | NQVTDSSQLNKLTDEQS [SIR3] | 2.68 ± 0.072
7 | NRAEGPEELARILQQLK [RGR1] | 3.62 ± 0.097
8 | NRDRSFQLLEPLSTYNK [PGD1] | 2.72 ± 0.045
9 | NREAATKEVESNIITKS [DIS3] | 2.87 ± 0.089
10 | NRRLVYSRILKSMGRKC [YCG1] | 1.14 ± 0.067
11 | NRSAYDSKNTPNVFDKD [YDL088C/ASM4] | 2.92 ± 0.091
12 | NRSWDHAYNITFNNQDK [RPO31] | 2.97 ± 0.042
13 | NRWHSESWANQLTVCGA [FAS2] | 1.86 ± 0.042
14 | NSAQNNSTTSGGLFGNK [YGR119C/NUP57] | 3.24 ± 0.17
15 | NSDDCMMEEIINVVIKA [ECM29] | 2.97 ± 0.11
16 | NSDLEGKIRGVEDDLVT [SMC2] | 3.24 ± 0.051
17 | NSEKFVFLLTTRAGGLG [ISW2] | 1.51 ± 0.12
18 | NSFKLFKAEKLQIVNQL [RPC17] | 2.13 ± 0.056
19 | NSFTKGNVFSPIDNNII [SNU114] | 2.95 ± 0.058
20 | NSGVGSAKGPEIIPLQD [MED6] | 3.23 ± 0.064
21 | NSKVDMKYDIFAKFIHH [IRR1] | 2.47 ± 0.054
22 | NSKVNKLNIETMRKISS [DSN1] | 2.95 ± 0.07
23 | NSLTKYPDLKAFHNNLK [MED1] | 2.93 ± 0.062
24 | NSLTVDGNNANYIYAGY [RPN14] | 2.85 ± 0.049
25 | NSNPTSNVFGSNNSTTN [YJL041W/NSP1] | 3.46 ± 0.066
26 | NSPNYFVAKLAAQIFGS [COR1] | 2.12 ± 0.049

Row | Sequence | protein stability index
27 | NSQTVSGTPITQTESKK [SNF2] | 2.39 ± 0.039
28 | NSTTSGGLFGNKVGSTG [YGR119C/NUP57] | 3.29 ± 0.17
29 | NSYWLIILLGVLEDCRH [ITC1] | 2.36 ± 0.057
30 | NTCYLNATLQALYRVND [UBP6] | 2.5 ± 0.055
31 | NTIGSVHGKAPMLMANN [SSN3] | 1.89 ± 0.19
32 | NTNNNDTIATSATPNAA [GAL11] | 2.74 ± 0.043
33 | NTSLPPSILEDSLENNE [FAS1] | 2.81 ± 0.079
34 | NTTLQDNVSFIEEAKSI [REC8] | 3.17 ± 0.066
35 | NVDRLYKLNVRSNDPQS [NUT2] | 3.39 ± 0.089
36 | NVEKYPTFVEFILIPLY [SNU114] | 2.65 ± 0.053
37 | NVELLNCIRILADKLEN [YIL149C/MLP2] | 1.2 ± 0.045
38 | NVESAGAMTPEEIFFKS [RPC40] | 3.27 ± 0.045
39 | NVIKTGIRIISLTYKKI [RPN3] | 2.2 ± 0.042
40 | NVISSKDWELEARFWHL [YDL116W/NUP84] | 3.25 ± 0.068
41 | NVKEEETVAKSKNAERK [RPS8A] | 3.001 ± 0.029
42 | NVLIGGYDKKKNKPELY [PRE1] | 2.74 ± 0.27
43 | NVLNQIHQILLPTNPTL [CSE2] | 2.42 ± 0.035
44 | NVVIDEAVEIPVNSADG [SME1] | 2.98 ± 0.045
45 | NVVLVTNDRLNREAATK [DIS3] | 2.37 ± 0.074
46 | NVVVKWQGKPVFIRHRT [RIP1] | 2.88 ± 0.27
47 | NWWHSEFEIPVSFNGFK [BRR2] | 1.34 ± 0.058
48 | NYESVFTYNKFLLNQNK [YIL149C/MLP2] | 2.26 ± 0.049
49 | NYSSLPSPYKTTVYRYS [YAR002W/NUP60] | 1.91 ± 0.034
50 | PAALDGLMKSYKIPKVM [ESC2] | 3.45 ± 0.088
51 | PAANESEVANNGLIISW [RRP42] | 1.4 ± 0.072
52 | PAFSFGTKSNEKKDSGS [YJL041W/NSP1] | 3.25 ± 0.065

Row | Sequence | protein stability index
53 | PAGKQVEISLVNGAKNL [FAS1] | 2.31 ± 0.19
54 | PAGMNETPKSNNSLSYH [ITC1] | 3 ± 0.092
55 | PAINYTKLKNAVQNESV [QCR2] | 1.54 ± 0.048
56 | PAPSIPSTGFKFSLPFE [YLR335W/NUP2] | 3.05 ± 0.086
57 | PAPSKPVIDYELKEITS [BRR2] | 3.1 ± 0.07
58 | PARSSSLRSNVVVAETS [YAR002W/NUP60] | 2.58 ± 0.035
59 | PAWFNNPRKRAIPNSII [YMR153W/NUP53] | 3.25 ± 0.084
60 | PCNNRGKHSIGLIWYLL [RPS0A] | 2.37 ± 0.044
61 | PDMMVDSFTMPNISHSN [SNF2] | 3.18 ± 0.093
62 | PDSCNMQEKAAHIAKNL [YCS4] | 1.47 ± 0.093
63 | PDTAIDSQMDEASGTPD [GRR1] | 3 ± 0.055
64 | PDTKISSAAILGLGIAF [RPN1] | 2.06 ± 0.051
65 | PELLDSLAILGMNLLSN [SWI1] | 1.92 ± 0.066
66 | PENLQVTSEKYPFDKLE [BRR2] | 3.19 ± 0.035
67 | PEVVELCQKSPVMADLN [FAS2] | 2.73 ± 0.085
68 | PFDKKSNSALFRAVGEG [FAS1] | 2.91 ± 0.063
69 | PFDMGGYFIINGSEKVL [RPB2] | 2.33 ± 0.16
70 | PFMSYSPQLTAIIGLKS [SNF12] | 1.98 ± 0.053
71 | PFNFTVTLFQMAILLLY [CDC53] | 1.63 ± 0.039
72 | PFPQYPAGMNETPKSNN [ITC1] | 3.01 ± 0.089
73 | PGGASGLGVLTHRNKDG [FAS1] | 3.44 ± 0.069
74 | PGGYFIVNGTEKVILVQ [RET1] | 2.48 ± 0.13
75 | PGIISITSLQDSSSQCI [YMR129W/POM152] | 3.14 ± 0.085
76 | PGLEFLDDTTIPVGLMA [MCD1] | 2.52 ± 0.055
77 | PGRIDRKILFENPDLST [RPT2] | 3.37 ± 0.056
78 | PGTGKTLLARAVAHHTD [RPT6] | 1.49 ± 0.057

Row | Sequence | protein stability index
79 | PGVNREINSEMCHIVRK [GRR1] | 3.12 ± 0.052
80 | PGWDFETEEIDPELLRS [RPL5] | 2.77 ± 0.17
81 | PIEVDEELLQLFLNNFV [IRR1] | 3.18 ± 0.058
82 | PIKEAKIKHGSVTEIPL [YMR129W/POM152] | 2.99 ± 0.05
83 | PIMLRSKNCYLSEATES [RPB2] | 1.14 ± 0.061
84 | PINGNEAESQWYIEKVI [CSI1] | 2.93 ± 0.18
85 | PINLHPSKLVITKLHLD [RPL26A] | 1.85 ± 0.042
86 | PIQSKVFHAAFEGDSNM [BRR2] | 2.9 ± 0.032
87 | PITASMAAALPNPTPSM [PGD1] | 2.51 ± 0.067
88 | PITNKERSLAVKYINFG [RPC31] | 2.48 ± 0.18
89 | PIVEDRRVKQLDDITDS [SIR4] | 1.64 ± 0.12
90 | PIVLLNTLRKCYPQFAE [UBP6] | 1.19 ± 0.12
91 | PIYYQKLKHMVLDKMHA [RET1] | 1.77 ± 0.063
92 | PKATSSAGAVFKSSVEM [YOR098C/NUP1] | 2.45 ± 0.047
93 | PKDSSSTFREWKNLVLK [YJR042W/NUP85] | 3.16 ± 0.088
94 | PKEEEPILAPSVKDYRP [RPS3] | 2.65 ± 0.054
95 | PKIETNVYVGMTDMQIQ [ISW2] | 3.29 ± 0.11
96 | PKNVPTSKWLNSITSGG [YDL116W/NUP84] | 2.6 ± 0.064
97 | PKPLKFLRPTYPDLCSI [RPN1] | 2.5 ± 0.042
98 | PKSGIDIFVYLTYDKDL [MTR3] | 1.7 ± 0.053
99 | PKSLNSNININVNNNNI [SWI1] | 2.81 ± 0.098
100 | PKTELTKGDSTPVQPDL [YAR002W/NUP60] | 3.1 ± 0.037
101 | PLIIVSDGQSRVKDIHL [RET1] | 2.79 ± 0.15
102 | PLIKKIKYEPRFEKAVK [SMC3] | 2.48 ± 0.079
